Test results as given in the supplement of paper PMC9112550, “Optimization of the antimicrobial peptide Bac7 by deep mutational scanning” (BMC Biology, 2022).

Test system: Escherichia coli TOP10
Test: shrunken log2 fold change of peptide-encoding DNA abundance (4.5 h post-induction vs induction); higher = less antimicrobial activity (less host growth inhibition)
Conditions: time post-induction: 4.5 h; library: site-saturation at positions 5, 18, 19, 20
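Also: peptides expressed intracellularly from a pBAD plasmid library in pooled LB shake-flask culture, induced with 0.3% L-arabinose, DNA abundance read by NGS, three biological replicates, DESeq2 with apeglm shrinkage.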

Row | Sequence | shrunken log2 fold change
1 | RRIRQRPPRLPRPRPRPLSDPRP | -0.0651
2 | RRIRNRPPRLPRPRPRPSHFPRP | -0.647
3 | RRIRGRPPRLPRPRPRPMVYPRP | 0.438
4 | RRIRLRPPRLPRPRPRPKRTPRP | 0.21
5 | RRIRMRPPRLPRPRPRPDGQPRP | 1.15
6 | RRIRFRPPRLPRPRPRPDTRPRP | -0.324
7 | RRIRTRPPRLPRPRPRPQHDPRP | -0.259
8 | RRIRYRPPRLPRPRPRPHTMPRP | -0.604
9 | RRIRQRPPRLPRPRPRPYTKPRP | -0.111
10 | RRIRKRPPRLPRPRPRPELWPRP | 1.42
11 | RRIRNRPPRLPRPRPRPIHCPRP | -0.244
12 | RRIRHRPPRLPRPRPRPTGKPRP | -0.00448
13 | RRIRQRPPRLPRPRPRPEVWPRP | 0.552
14 | RRIRSRPPRLPRPRPRPCCHPRP | -0.0953
15 | RRIRQRPPRLPRPRPRPFYPPRP | 0.0712
16 | RRIRTRPPRLPRPRPRPTNLPRP | -0.0724
17 | RRIRHRPPRLPRPRPRPAGWPRP | 0.449
18 | RRIRTRPPRLPRPRPRPRLCPRP | 0.317
19 | RRIRWRPPRLPRPRPRPNLEPRP | 0.322
20 | RRIRNRPPRLPRPRPRPMHHPRP | -0.653
21 | RRIRRRPPRLPRPRPRPHIYPRP | -0.0628
22 | RRIRWRPPRLPRPRPRPSDYPRP | 0.0192
23 | RRIRIRPPRLPRPRPRPCACPRP | -0.889
24 | RRIRLRPPRLPRPRPRPREWPRP | -0.0315
25 | RRIRYRPPRLPRPRPRPIQIPRP | -0.409

Row | Sequence | shrunken log2 fold change
26 | RRIRQRPPRLPRPRPRPNYIPRP | -0.445
27 | RRIRARPPRLPRPRPRPYNSPRP | -1.21
28 | RRIRHRPPRLPRPRPRPPIFPRP | -0.163
29 | RRIRVRPPRLPRPRPRPFDHPRP | -0.557
30 | RRIRWRPPRLPRPRPRPWSGPRP | 0.076
31 | RRIRQRPPRLPRPRPRPMPMPRP | -0.00149
32 | RRIRARPPRLPRPRPRPVFDPRP | 0.321
33 | RRIRFRPPRLPRPRPRPKEDPRP | 0.122
34 | RRIRFRPPRLPRPRPRPNYVPRP | -0.492
35 | RRIRWRPPRLPRPRPRPPCYPRP | -0.436
36 | RRIRFRPPRLPRPRPRPIKCPRP | -0.229
37 | RRIRHRPPRLPRPRPRPLAWPRP | 0.198
38 | RRIRNRPPRLPRPRPRPSHTPRP | -0.412
39 | RRIRSRPPRLPRPRPRPDVRPRP | 0.0647
40 | RRIRDRPPRLPRPRPRPCHNPRP | -0.184
41 | RRIRHRPPRLPRPRPRPRGMPRP | 0.207
42 | RRIRDRPPRLPRPRPRPSRKPRP | -0.0764
43 | RRIRVRPPRLPRPRPRPWGAPRP | 0.21
44 | RRIRWRPPRLPRPRPRPLHTPRP | 0.0467
45 | RRIRRRPPRLPRPRPRPELRPRP | 0.463
46 | RRIRFRPPRLPRPRPRPELCPRP | 0.193
47 | RRIRMRPPRLPRPRPRPSMSPRP | -0.024
48 | RRIRFRPPRLPRPRPRPIMHPRP | -0.212
49 | RRIRQRPPRLPRPRPRPEERPRP | 0.104
50 | RRIRHRPPRLPRPRPRPHLDPRP | -0.214

Row | Sequence | shrunken log2 fold change
51 | RRIRCRPPRLPRPRPRPTQNPRP | 0.803
52 | RRIRIRPPRLPRPRPRPNDQPRP | -0.43
53 | RRIRPRPPRLPRPRPRPWYNPRP | -0.184
54 | RRIRIRPPRLPRPRPRPPLIPRP | -0.512
55 | RRIRMRPPRLPRPRPRPGQMPRP | 0.123
56 | RRIRKRPPRLPRPRPRPPHRPRP | 0.501
57 | RRIRHRPPRLPRPRPRPSEFPRP | -0.477
58 | RRIRHRPPRLPRPRPRPDKKPRP | -0.0244
59 | RRIRHRPPRLPRPRPRPVDTPRP | -0.508
60 | RRIRLRPPRLPRPRPRPWYPPRP | -0.242
61 | RRIRRRPPRLPRPRPRPPVPPRP | 0.753
62 | RRIRHRPPRLPRPRPRPKEYPRP | -0.0937
63 | RRIRKRPPRLPRPRPRPWQHPRP | -0.0281
64 | RRIRDRPPRLPRPRPRPPLLPRP | 0.252
65 | RRIRARPPRLPRPRPRPQAQPRP | 0.664
66 | RRIRIRPPRLPRPRPRPVPFPRP | -0.264
67 | RRIRCRPPRLPRPRPRPVFSPRP | -0.385
68 | RRIRYRPPRLPRPRPRPMNPPRP | 0.02
69 | RRIRSRPPRLPRPRPRPPDEPRP | 0.813
70 | RRIRMRPPRLPRPRPRPWEEPRP | 0.317
71 | RRIRIRPPRLPRPRPRPTMPPRP | -0.22
72 | RRIRYRPPRLPRPRPRPFNDPRP | -0.102
73 | RRIRVRPPRLPRPRPRPYTVPRP | -0.0784
74 | RRIRMRPPRLPRPRPRPIAHPRP | -0.0202
75 | RRIRYRPPRLPRPRPRPGSLPRP | -0.0848

Row | Sequence | shrunken log2 fold change
76 | RRIRNRPPRLPRPRPRPKICPRP | -0.262
77 | RRIRYRPPRLPRPRPRPNIHPRP | -0.98
78 | RRIRRRPPRLPRPRPRPSMLPRP | -0.172
79 | RRIRDRPPRLPRPRPRPMSRPRP | -0.107
80 | RRIRCRPPRLPRPRPRPYQLPRP | -0.119
81 | RRIRWRPPRLPRPRPRPNQPPRP | 0.198
82 | RRIRMRPPRLPRPRPRPETRPRP | 0.925
83 | RRIRSRPPRLPRPRPRPKVYPRP | 0.226
84 | RRIRARPPRLPRPRPRPCKDPRP | 0.0511
85 | RRIRCRPPRLPRPRPRPCLMPRP | -0.421
86 | RRIRRRPPRLPRPRPRPIPQPRP | 0.336
87 | RRIRRRPPRLPRPRPRPPVEPRP | 0.593
88 | RRIRPRPPRLPRPRPRPDRAPRP | 0.622
89 | RRIRGRPPRLPRPRPRPWGHPRP | 0.152
90 | RRIRQRPPRLPRPRPRPMSIPRP | -0.00929
91 | RRIRVRPPRLPRPRPRPLTTPRP | -0.219
92 | RRIRDRPPRLPRPRPRPGGFPRP | 0.134
93 | RRIRFRPPRLPRPRPRPPMHPRP | 0.162
94 | RRIRQRPPRLPRPRPRPYNFPRP | -0.0266
95 | RRIRLRPPRLPRPRPRPGTIPRP | -0.689
96 | RRIRLRPPRLPRPRPRPWDCPRP | -0.0998
97 | RRIRHRPPRLPRPRPRPEREPRP | 0.0173
98 | RRIRPRPPRLPRPRPRPDANPRP | 0.172
99 | RRIRCRPPRLPRPRPRPNHLPRP | -0.437
100 | RRIRRRPPRLPRPRPRPPAKPRP | 1.35

Row | Sequence | shrunken log2 fold change
101 | RRIRQRPPRLPRPRPRPLELPRP | 0.0289
102 | RRIRDRPPRLPRPRPRPIVYPRP | -0.0329
103 | RRIRCRPPRLPRPRPRPKIFPRP | -0.0936
104 | RRIRHRPPRLPRPRPRPHWPPRP | -0.25
105 | RRIRCRPPRLPRPRPRPGESPRP | 0.107
106 | RRIRIRPPRLPRPRPRPLGRPRP | 0.39
107 | RRIRSRPPRLPRPRPRPDVNPRP | 0.0672
108 | RRIRYRPPRLPRPRPRPPYEPRP | -0.0831
109 | RRIRWRPPRLPRPRPRPISWPRP | 0.0165
110 | RRIRDRPPRLPRPRPRPITPPRP | -0.117
111 | RRIRYRPPRLPRPRPRPINIPRP | -1.21
112 | RRIRPRPPRLPRPRPRPSMPPRP | -0.208
113 | RRIRNRPPRLPRPRPRPSHPPRP | 0.186
114 | RRIRWRPPRLPRPRPRPAPRPRP | 1.12
115 | RRIRERPPRLPRPRPRPQKKPRP | 0.0196
116 | RRIRGRPPRLPRPRPRPGVRPRP | 0.659
117 | RRIRRRPPRLPRPRPRPSRQPRP | 0.352
118 | RRIRFRPPRLPRPRPRPHVTPRP | -0.211
119 | RRIRLRPPRLPRPRPRPSSFPRP | -0.0574
120 | RRIRNRPPRLPRPRPRPWREPRP | 0.262
121 | RRIRTRPPRLPRPRPRPWMPPRP | -0.247
122 | RRIRMRPPRLPRPRPRPNRAPRP | 0.239
123 | RRIRMRPPRLPRPRPRPVILPRP | -0.826
124 | RRIRDRPPRLPRPRPRPCDRPRP | -0.0944
125 | RRIRIRPPRLPRPRPRPGEGPRP | 0.38
